Measurements: publication PMC5510646 (The Biochemical journal, 2017)

B1: Grem2 K66A/K69A (natural protein)
chain: RKNRPAGAIPSPYKDGSSNNSERWHHQIKEVLASSQEALVVTERAYLASDWCKTQPLRQTVSEEGCRSRTILNRFCYGQCNSFYIPRHVKKEEDSFQSCAFCKPQRVTSVIVELECPGLDPPFRIKKIQKVKHCRCMSVNLSDSDKQ
B2: Grem2 K151A/K153A (natural protein)
chain: RKNRPAGAIPSPYKDGSSNNSERWHHQIKEVLASSQEALVVTERKYLKSDWCKTQPLRQTVSEEGCRSRTILNRFCYGQCNSFYIPRHVKKEEDSFQSCAFCKPQRVTSVIVELECPGLDPPFRIKKIQAVAHCRCMSVNLSDSDKQ
B3: Grem2 K147A/K148A (natural protein)
chain: RKNRPAGAIPSPYKDGSSNNSERWHHQIKEVLASSQEALVVTERKYLKSDWCKTQPLRQTVSEEGCRSRTILNRFCYGQCNSFYIPRHVKKEEDSFQSCAFCKPQRVTSVIVELECPGLDPPFRIAAIQKVKHCRCMSVNLSDSDKQ
B4: Grem2 K111A/K112A (natural protein)
chain: RKNRPAGAIPSPYKDGSSNNSERWHHQIKEVLASSQEALVVTERKYLKSDWCKTQPLRQTVSEEGCRSRTILNRFCYGQCNSFYIPRHVAAEEDSFQSCAFCKPQRVTSVIVELECPGLDPPFRIKKIQKVKHCRCMSVNLSDSDKQ

Columns and labels:
SEC = target: the molecule itself; experiment: SEC
Grem2 K151A/K153A = target: B2; experiment: SPR
[1] = target: T1, Grem2 K66A/K69A/K147A/K148A (UniProt O88273 22-168, K66A | K69A | K147A | K148A); experiment: SPR
T1 sequence: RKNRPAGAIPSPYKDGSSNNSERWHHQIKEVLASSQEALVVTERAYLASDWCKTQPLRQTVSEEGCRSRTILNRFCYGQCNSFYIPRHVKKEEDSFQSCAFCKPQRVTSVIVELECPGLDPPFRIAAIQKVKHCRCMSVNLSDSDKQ

[2] = target: T2, Grem2 K147A/K148A/K151A/K153A (UniProt O88273 22-168, K147A | K148A | K151A | K153A); experiment: SPR
T2 sequence: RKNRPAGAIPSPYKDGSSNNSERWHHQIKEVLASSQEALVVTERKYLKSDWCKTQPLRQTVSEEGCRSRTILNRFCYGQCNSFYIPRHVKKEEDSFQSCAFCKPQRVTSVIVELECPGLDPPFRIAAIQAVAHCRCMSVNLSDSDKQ

Grem2 K111A/K112A = target: B4; experiment: SPR
[3] = target: T3, Grem2 K111A/K112A/K151A/K153A (UniProt O88273 22-168, K111A | K112A | K151A | K153A); experiment: SPR
T3 sequence: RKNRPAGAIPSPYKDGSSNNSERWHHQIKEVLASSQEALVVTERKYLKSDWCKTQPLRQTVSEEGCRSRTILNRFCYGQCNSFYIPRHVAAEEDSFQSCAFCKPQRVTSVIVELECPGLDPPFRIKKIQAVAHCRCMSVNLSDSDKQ

Gremlin-2 wild type = target: T4, Gremlin-2 wild type (UniProt O88273 22-168); experiment: SPR
T4 sequence: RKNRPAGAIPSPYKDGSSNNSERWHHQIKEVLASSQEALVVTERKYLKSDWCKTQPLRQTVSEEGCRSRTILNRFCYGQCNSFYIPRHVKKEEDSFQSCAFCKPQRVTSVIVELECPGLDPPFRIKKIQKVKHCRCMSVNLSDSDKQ

Grem2 K66A/K69A = target: B1; experiment: SPR
Grem2 K147A/K148A = target: B3; experiment: SPR

B1
stoichiometry N (SEC): 2

B2
stoichiometry N (SEC): 2

B3
stoichiometry N (SEC): 2

B4
stoichiometry N (SEC): 2

B5: Recombinant mature BMP2 (ligand, UniProt P12643 283-396, looked up)
chain: QAKHKQRKRLKSSCKRHPLYVDFSDVGWNDWIVAPPGYHAFYCHGECPFPLADHLNSTNHAIVQTLVNSVNSKIPKACCVPTELSAISMLYLDENEKVVLKNYQDMVVEGCGCR
Kd (Grem2 K151A/K153A): 1.3 nM
Kd [1]: 5.66 nM
Kd [2]: 4.4 nM
Kd (Grem2 K111A/K112A): 1.77 nM
Kd [3]: 2.11 nM
Kd (Gremlin-2 wild type): 1.42 nM
Kd (Grem2 K66A/K69A): 2.4 nM
Kd (Grem2 K147A/K148A): 1.98 nM
